# Measurements taken from article PMC12103068.
# B1: AoAxeB (Aspergillus oryzae RIB40) (protein)
# chain: AGSAGCGQPLPPSQNPGGSSYGVNFTLSAGTQRFYRIHIPSNYNVNTPTPLIFSFHGRGKTAESQEKLSQFSNEDWNPDAIAVYPQGLNKEWQGDPHSKDVDDIAFTMEMLDYFQEKFCIDSTRVYAAGKSNGGGFTNLLACDPTASTRIAAFAPVSGAYYQDVSEEACHPTTVPIKCSPGRPSIPILEFHGTADKTIPYGGGGRRGECLPSIPHFVREWSKRLGYGLHNTTKELYDGNVQEYQYGNGDNRGIVTHYRIGGLGHDWPSVRPNSDNPNGTYLDATPIIVKFFKQWVLPGSSEDNQSEAR
# Substrate: CC(=O)Oc1cccc2ccccc12
# Assay: purified protein
# Format: biochemical, Aspergillus oryzae
# Settings: 50 mM sodium phosphate pH 8.0, 30 °C (general assay conditions)
protein,measurement,value
B1,Km,240 ± 120 µM
same,kcat,0.17 ± 0.03 s⁻¹
